# Measurements: patent publication US6548743B1, “Transgenic plants expressing a dual-specificity MAPK phosphatase and uses thereof” (The General Hospital Corporation, priority 1998, dated 2003)
# What was measured:
# [1] = test system: NPK1-dependent activation of a MAPK and repression of the GH3 promoter; assay: Transient expression in maize protoplasts: reversal of NPK1 effects; assay type: cell-based; conditions: transfected maize protoplasts, 35S CaMV promoter
# From the text: A phosphatase domain containing a fragment of the mouse MKP-1 (amino acids 1-314 (SEQ ID NO.: 11); Sun et al., Cell 75: 487-493, 1993) was cloned into the plant expression vector pART7. This expression plasmid was then used for transient expression of MKP-1 in maize protoplasts.
# tobacco cells = assay: Auxin effect on division and differentiation of transfected tobacco cells; assay type: cell-based
# Method: To examine the effects of auxin on cell division and differentiation of cells expressing MKP-1 SEQ ID NO.:10; tobacco cells transfected with the MKP-1 transgene expressed under the control of the 35S CaMV promoter were cultured on a medium containing 0.1 μM or 1 μM NAA. […] Since prevention of MAPK activation by MKP-1 can render plant cells less sensitive to auxin, activation of some MAPK pathways may be crucial in auxin stimulated plant cell proliferation.
# tobacco cultivar SR1 = assay: Phenotype of transgenic tobacco SR1 plants expressing the transgene (35S CaMV promoter); assay type: in vivo
# From the text: (§1) Next, we examined the phenotypic modifications of transgenic plants expressing MKP-1 under the control of the 35S CaMV promoter. For these experiments, we introduced the MKP-1 construct into tobacco cultivar SR1 and Arabidopsis plants according to standard Agrobacterium-mediated gene transfer methods. Initiation of flowering in the day-neutral tobacco cultivar SR1 is mainly dependent on the number of leaves found on the plants. These tobacco plants, in general, remain in the vegetative state until approximately twenty leaves have developed. […] Some transformants even initiated flowers after only a few small leaves had developed (FIG. 4). Despite early flowering, these plants were fertile. […] Similar results were obtained when MKP-1 was expressed in Arabidopsis plants.
# Arabidopsis plants = assay: Phenotype of transgenic Arabidopsis plants expressing the transgene (35S CaMV promoter); assay type: in vivo
# From the text: as §1
molecule,measurement,setting,value
"MKP-1: dual-specificity MAPK phosphatase; fragment of mouse MKP-1 (amino acids 1-314) expressed from a transgene under the 35S CaMV promoter (protein, UniProt P28563 1-314, looked up, fragment) MVMEVGILDAGGLRALLREGAAQCLLLDCRSFFAFNAGHIAGSVNVRFSTIVRRRAKGAMGLEHIVPNAELRGRLLAGAYHAVVLLDERSASLDGAKRDGTLALAAGALCREARSTQVFFLQGGYEAFSASCPELCSKQSTPTGLSLPLSTSVPDSAESGCSSCSTPLYDQGGPVEILSFLYLGSAYHASRKDMLDALGITALINVSANCPNHFEGHYQYKSIPVEDNHKADISSWFNEAIDFIDSIKDAGGRVFVHCQAGISRSATICLAYLMRTNRVKLDEAFEFVKQRRSIISPNFSFMGQLLQFESQVLA",effect on NPK1-dependent activation of a MAPK,[1],complete elimination
same,effect on repression of the auxin-inducibility of the GH3 promoter by NPK1,[1],complete elimination
same,cell division under low auxin,tobacco cells; 0.1 μM NAA,failed to divide
same,cell phenotype under high auxin,tobacco cells; 1 μM NAA,remained green and formed tight calli with differentiated shoot primordia
same,level of auxin required to initiate cell division,"tobacco cells; constant concentration of cytokinin, compared with cells transfected with vector alone",1 μM NAA
same,number of leaves before flowering compared to wild type,"tobacco cultivar SR1; MKP-1 transformed SR1 tobacco, FIG. 2",about half
same,fertility,tobacco cultivar SR1; early flowering transformants,fertile
same,reduction in the vegetative life span of the plant,tobacco cultivar SR1; in vivo,~50%
same,initiation of flowering,tobacco cultivar SR1; primary transgenic SR1 lines vs control plants,initiated flowering earlier than control plants
same,flower and seed production,tobacco cultivar SR1; transgenic vs wild-type plants,more flowers and seeds than the wild-type plants
same,fertility of reproductive organs,Arabidopsis plants; in vivo,fertile
same,inflorescence initiation,Arabidopsis plants; progenies of several Arabidopsis lines,initiate the inflorescence stem without producing any rosette leaves
